Fewer inactive variants are shown than the library holds.
B1: TPR 5TU (parent)
chain: GGAUCUUCUCGAUCUAACAAAAAAGACAAAUCUGCCACAAAGCUUGAGAGCAUCUUCGGAUGCAGAGGCGGCAGCCUUCGGUGGCGCGAUAGCGCCAACGUUCUCAACUAUGACACGCAAAACGCGUGCUCCGUUGAAUGGAGUUUAUCAUG

Variants of: B1
Assay: polymerase ribozyme fitness, log enrichment relative to wild type (log ratio); higher = more active; in vitro selection for triplet polymerase activity
Outline: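 Streptavidin-bead capture of gel-excised extended constructs, followed by RT-PCR, closed a single triplicate in vitro selection round. That round began by annealing PCR-built, transcribed mutant libraries of each subunit of a heterodimeric triplet polymerase ribozyme with a biotinylated primer, the partner subunit and triplets, then incubating them frozen at −7 °C. After Illumina sequencing of inputs and outputs, genotypes needed ≥10 input reads and ≥1 read per output. Fitness is the base-2 logarithm of genotype enrichment over wild-type enrichment, using inverse-variance-weighted replicate averages.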

First: A66G G92C C105U
Second: G62A G84A U135A
The “polymerase ribozyme fitness (log ratio)” value of the first is lower: -4.03 for the first, -1.93 for the second.

Compared with G67C G92U C99U A107U U148A, A66C C76U is higher in “polymerase ribozyme fitness (log ratio)” value: at most -4.2 for the first, -3.47 for the second.

First: U61A A73G G94U
Second: G68A G71C C95A C116U
The “polymerase ribozyme fitness (log ratio)” value of the first is higher: -3 for the first, at most -4.2 for the second.

First: G70C G94C
Second: A60U C85G G92C U102G
The “polymerase ribozyme fitness (log ratio)” value of the first is higher: -3.44 for the first, at most -4.2 for the second.

A60U G67A A91G A137U and G67A A73C C87G cannot be ordered by “polymerase ribozyme fitness (log ratio)” value: at most -4.2 for the first, at most -4.2 for the second.

C63U C75A G84A C118G A120G and C63U C99G U151A cannot be ordered by “polymerase ribozyme fitness (log ratio)” value: at most -4.2 for the first, at most -4.2 for the second.

Compared with U61A A89C A107U G117U U144G U151A, A64G A91C A115G U145C is higher in “polymerase ribozyme fitness (log ratio)” value: at most -4.2 for the first, -3.96 for the second.

First: A60G C96A A121U
Second: G71A U144A A147C
The “polymerase ribozyme fitness (log ratio)” value of the first is higher: -0.437 for the first, at most -4.2 for the second.

Compared with C63U A73G, U61G G84A U139C U145C is lower in “polymerase ribozyme fitness (log ratio)” value: -0.225 for the first, at most -4.2 for the second.

Going from G68A C75A U77A C95A A97G to A60U G141U, the “polymerase ribozyme fitness (log ratio)” value rises from at most -4.2 to 0.392.

G68A G83U C118G G136U and G68U A150G cannot be ordered by “polymerase ribozyme fitness (log ratio)” value: at most -4.2 for the first, at most -4.2 for the second.

Compared with C69A A121G, G67U G81A C93G C105U is lower in “polymerase ribozyme fitness (log ratio)” value: -1.74 for the first, at most -4.2 for the second.

First: G62A G81U C95A G126U
Second: C69A C93G C103A U130A
The “polymerase ribozyme fitness (log ratio)” value of the first is higher: 0.493 for the first, at most -4.2 for the second.

Going from G68A A91U A107C A110G G141A to U61G C116A, the “polymerase ribozyme fitness (log ratio)” value rises from at most -4.2 to -0.386.

Going from A60G A110G G136A to U61G C93G A98U A138C, the “polymerase ribozyme fitness (log ratio)” value falls from -2.56 to at most -4.2.

G67A G74C G94A A119G and A60U C85G A89U cannot be ordered by “polymerase ribozyme fitness (log ratio)” value: at most -4.2 for the first, at most -4.2 for the second.

Going from G67U C85A C93U to G71A C96G, the “polymerase ribozyme fitness (log ratio)” value rises from at most -4.2 to -3.31.

First: C69G G84U A89U A122C U146C
Second: U61C C87A
The “polymerase ribozyme fitness (log ratio)” value of the first is higher: -2.82 for the first, at most -4.2 for the second.

A60G C69A A91U A97U U134C and A60G G71A C75A C93U C118G cannot be ordered by “polymerase ribozyme fitness (log ratio)” value: at most -4.2 for the first, at most -4.2 for the second.

Going from G65A A113G to C69U G136U U146C, the “polymerase ribozyme fitness (log ratio)” value rises from -3.91 to -2.94.

A60G U61G C76A G124C C125G and G68C C93U A113U cannot be ordered by “polymerase ribozyme fitness (log ratio)” value: at most -4.2 for the first, at most -4.2 for the second.

Compared with U61A C103G A115U, A60C G84U is higher in “polymerase ribozyme fitness (log ratio)” value: at most -4.2 for the first, -2.22 for the second.

G62C C72U C85U C108U and G70A A73G C79U G88C G133C A137C cannot be ordered by “polymerase ribozyme fitness (log ratio)” value: at most -4.2 for the first, at most -4.2 for the second.

Compared with C63G G81U G92A G117C C118U G143U, C69A A115U is higher in “polymerase ribozyme fitness (log ratio)” value: at most -4.2 for the first, -2.49 for the second.

First: A60G G67U C93G U102C
Second: G62A C116U
The “polymerase ribozyme fitness (log ratio)” value of the first is lower: at most -4.2 for the first, -0.0465 for the second.

A60G C85A and C69G G94A are within 0.2 log units of each other in “polymerase ribozyme fitness (log ratio)” value: -0.96 for the first, -1.15 for the second.

G68A G81A C95A A150C G152A and G68U C85G U139A U145G U146G cannot be ordered by “polymerase ribozyme fitness (log ratio)” value: at most -4.2 for the first, at most -4.2 for the second.

Compared with G62A C103U, U61A G65A G67C G84U C96G G141U is lower in “polymerase ribozyme fitness (log ratio)” value: -1.66 for the first, at most -4.2 for the second.

First: C69U C116U U135A G136U
Second: A64G
The “polymerase ribozyme fitness (log ratio)” value of the first is lower: -4.18 for the first, -2.27 for the second.

Going from A64C to A64U, the “polymerase ribozyme fitness (log ratio)” value rises from at most -4.2 to -3.99.

Going from G62U C95A to A66C C103G C108A G117A, the “polymerase ribozyme fitness (log ratio)” value falls from -1.1 to at most -4.2.

U61A C79A G83C and C63A C79U G94C A119G cannot be ordered by “polymerase ribozyme fitness (log ratio)” value: at most -4.2 for the first, at most -4.2 for the second.

Compared with A60U C85A, A60U C85U is higher in “polymerase ribozyme fitness (log ratio)” value: -3.04 for the first, -1.46 for the second.

Compared with A60U C85G, G71C A73C C108U U146C C149G is lower in “polymerase ribozyme fitness (log ratio)” value: -3.14 for the first, at most -4.2 for the second.

Compared with G62C C72U C93U G133A G141U, U61A C76A is higher in “polymerase ribozyme fitness (log ratio)” value: at most -4.2 for the first, -3.6 for the second.

Going from A60G G74A to C69A C85U C123A, the “polymerase ribozyme fitness (log ratio)” value rises from -3.26 to -2.37.

G71C and G71A are within 0.2 log units of each other in “polymerase ribozyme fitness (log ratio)” value: -2.66 for the first, -2.47 for the second.

First: G71U
Second: A60U C96G
The “polymerase ribozyme fitness (log ratio)” value of the first is higher: -1.93 for the first, -3.34 for the second.

Going from C69U C93U to U61A C95A, the “polymerase ribozyme fitness (log ratio)” value rises from -2.33 to -1.41.

First: G71A A107U G133C
Second: A60G G143U
The “polymerase ribozyme fitness (log ratio)” value of the first is lower: at most -4.2 for the first, -1.77 for the second.

Compared with U61A C76A C87U, G62A G67A C72U C75G C93G C95U A120G is lower in “polymerase ribozyme fitness (log ratio)” value: -3.68 for the first, at most -4.2 for the second.

In the case of A66G C85U, the “polymerase ribozyme fitness (log ratio)” value is reported as -3.45.
